Experiments:
[1] = biological target: T1, human BTLA on cells (stably transfected 293c18 cells; human peripheral blood T and B cells) (human, UniProt Q7Z6A9 31-289); experiment: flow cytometry (MFI DyL650) on gated CD20+ B cells of human PBMC, DyLight 650-labelled antibody, three-parameter fit [right panel (Naive B cells]
T1 construct: whole, on cells; the cells are named under assay; also called cell surface BTLA; full-length human BTLA
Experimental: (§1) Human peripheral blood mononuclear cells (PBMCs) were isolated by Histopaque (Sigma-Aldrich) density-gradient centrifugation of normal donor blood obtained from the San Diego Blood Bank (San Diego, CA). PBMCs were washed and incubated at 2×10⁷ cells/ml in FACS buffer (PBS, 1% BSA, 0.02% sodium azide) with Human BD Fc Block (2.5 μg/1×10⁶ cells, BD Biosciences) and LIVE/DEAD® Fixable Yellow Dead Cell Stain (30 μl, ThermoFisher Scientific) for 10 minutes on ice. Cells were washed once in FACS buffer, resuspended in FACS buffer at 1×10⁷ cells/ml and the following phenotyping antibodies added: Alexa Fluor 488-anti-human CD3E clone SK7, Brilliant Violet 421-anti-human CD4 clone OKT4, Brilliant Violet 785-anti-human CD8 clone SK1, and Brilliant Violet 570-anti-human CD20 clone 2H7 (50 μl each; all from BioLegend, Inc.). […] Samples were washed twice in FACS buffer, resuspended in 150 μl/well FACS buffer, and analyzed for fluorescence on a NovoCyte Flow Cytometer (ACEA Biosciences, Inc.). Data were analyzed using NovoExpress Software (ACEA Biosciences, Inc.). Median fluorescence intensities of anti-BTLA or isotype staining on gated CD4⁺ T cells (FIG. 4), CD8⁺ T cells (FIG. 4), or CD20⁺ B cells (FIG. 4) were graphed and curves fit with log(agonist) vs. response (three parameters) least squares fit for EC₅₀ calculation in GraphPad Prism (GraphPad Software, Inc.).

[2] = biological target: T2, cynomolgus monkey BTLA on cells (stably transfected 293c18 clone 1G5); cynomolgus peripheral blood T and B … (cynomolgus monkey, UniProt A0A2K5W7M7 31-289); experiment: flow cytometry, AF647-labeled 6G3 IgG4 on cynomolgus monkey peripheral blood CD3+ T cells; not saturated at 100 nM
T2 construct: whole, on cells; also called cynomolgus monkey BTLA 293c18 cells
T2 sequence: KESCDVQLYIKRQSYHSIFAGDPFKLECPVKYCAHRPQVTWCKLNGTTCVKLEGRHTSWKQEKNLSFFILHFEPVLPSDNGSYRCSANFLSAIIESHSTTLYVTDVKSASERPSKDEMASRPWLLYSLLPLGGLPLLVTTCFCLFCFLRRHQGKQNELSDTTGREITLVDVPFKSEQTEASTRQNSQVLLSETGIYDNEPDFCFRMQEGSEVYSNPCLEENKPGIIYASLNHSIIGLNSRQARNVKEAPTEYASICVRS
Experimental: Blood was then aliquoted into wells and incubated with the indicated concentrations of 6G3-AF647 (APE13766.02), or APC-Mouse Anti-Human CD272 (BTLA) reference antibody (clone J168-540; BD Biosciences) for minutes at room temperature, in the dark. Following incubation, red blood cells were lysed for minutes by addition of 2.0 ml diluted BD Pharm Lyse lysing solution (BD Biosciences), samples centrifuged at 200×g for 5 minutes, washed in FACS Buffer [Dulbecco's PBS, no calcium, no magnesium (Gibco/ThermoFisher Scientific), 25 mM HEPES, pH 7.2, 0.1% BSA, sodium azide] and fixed in 4% paraformaldehyde (200 μl/sample) for 10 minutes at room temperature. Samples were washed twice in FACS Buffer and analyzed for fluorescence on a NovoCyte Quanteon flow cytometer (ACEA Biosciences, Inc.). Data were analyzed using NovoExpress Software (ACEA Biosciences, Inc.). Mean fluorescence intensity (MFI) values were graphed and fit with nonlinear regression analyses in GraphPad Prism (GraphPad Software, Inc.). MFI values for each anti-BTLA antibody on total CD3+cells are shown in FIG. 5A; MFI values for each anti-BTLA antibody on total CD20+cells are shown in FIG. 5B. […] Binding of each anti-BTLA antibody to CD3⁻ cells in FIG. 5C and FIG. 5D (green cells in the bottom quadrants of each panel) reflects the binding to CD20⁺ B cells. […]

[3] = biological target: T1, human BTLA on cells (stably transfected …); experiment: flow cytometry (MFI DyL650) on gated CD8+ T cells of human PBMC, DyLight 650-labelled antibody, three-parameter fit [middle panel (Naive CD8+ T cells]
Experimental: as §1

EC50 [1]: 0.54 nM
EC50 [2]: ~3.4 nM
EC50 [3]: 3.23 nM
B1: 6G3 IgG4 anti-BTLA antibody (APE10840 / APE12839 / APE13308) (antibody, V domains shown)
VH: QVQLVQSGAEVKKPGSSVKVSCKASGYVFSTSWMNWVRQAPGQGLEWMGRIYPGDADTNYVGKFKGRVTITADKSTTTAYMELSSLRSEDTAVYFCAKSGTFNFGNYRWYFDVWGKGTTVTVSS
VL: AIQLTQSPSSLSASVGDRVTITCRVSENIYSHLAWYQQKPGKAPKLLIYAATNLALGVPSRFSGSGSGTDYTLTISSLQPEDFATYYCQLFWGPPLTFGGGTKVEIKR
notes: Humanized antibody from a mouse hybridoma, tested as human IgG4 (detected with anti-human kappa); Some assays used labelled lots (DyLight 650, AF647, biotin, DyL488); also called 6G3 antibody; APE10840.03

Source: patent publication US20230391872A1 (ANAPTYSBIO, published 2023)
